Reference: patent publication US20100310640A1

Legend:
Experiment in all cases: radiolabeled-peptide inhibition, purified HLA-DR
Details in all cases: remark: other sources report otherwise
[1] = target: T1, HLA-DR DRB1*0701 (human)
T1 chain 1: not shown
T1 chain 2: not shown

[2] = target: HLA-DR DRB1*1501 (human)
[3] = target: T2, HLA-DR DRB4*0101 (human)
T2 chain 1: not shown
T2 chain 2: not shown

[4] = target: T3, HLA-DR DRB1*1101 (human)
T3 chain 1: not shown
T3 chain 2: not shown

[5] = target: T4, HLA-DR DRB1*0404 (human)
T4 chain 1: not shown
T4 chain 2: not shown

[6] = target: T5, HLA-DR DRB1*0401 (human)
T5 chain 1: not shown
T5 chain 2: not shown

[7] = target: T6, HLA-DR DRB1*0101 (human)
T6 chain 1: not shown
T6 chain 2: not shown

B1: 9019.0055 (peptide)
peptide: SLTLQGLGISWLGLR
- IC50 [1]: 3100 nM
- IC50 [2]: 50 nM
- IC50 [3]: 22 nM
- IC50 [4]: 6310 nM
- IC50 [5]: 110 nM
- IC50 [6]: 143 nM
- IC50 [7]: 93 nM
